# Results from article PMC12260524, “Identification of a VPS29 isoform with restricted association to Retriever and Retromer accessory proteins through autoinhibition” (Proceedings of the National Academy of Sciences of the …, 2025).
# Molecular target: T1, GST-tagged VPS29C (Homo sapiens, UniProt Q9UBQ0)
# T1 construct: made in house; host or cells: E. coli BL21 (DE3)
# Assay: Isothermal titration calorimetry (ITC) of peptides with GST-VPS29C
# Type: binding
# Conditions: 25 °C, single-site model
# Protocol: All the bacterial constructs were expressed in BL21 (DE3) competent cells using the standard autoinduction method as described previously. Cell cultures were harvested by centrifugation at 6,000 × g for 5 min at 4 °C and the cell pellets were then stored at −80 °C until cell lysis. To obtain individual Retromer subunit including VPS26A, GST-VPS29B, and GST-VPS29C, the frozen cell pellet was resuspended in protein buffer (50 mM Tris-HCl pH 7.5, 200 mM NaCl, 2 mM β-mercaptoethanol) supplemented with 50 μg/mL benzamidine, 100 units of DNase I. In all cases, the resuspended cells were lysed through a Constant System TS-series high pressure cell disruptor. The soluble homogenate cleared by centrifugation was loaded onto either Talon resin (Clontech) for His-tagged VPS26A or Glutathione Sepharose (GE Healthcare) for GST-tagged VPS29B/VPS29C. The fusion-tagged containing proteins eluted from the resin were then further purified using size exclusion chromatography (SEC) on a HiLoad® 16/600 Superdex 200 or Superdex 75 column equilibrated with protein buffer. For Retromer, the soluble homogenate was first loaded onto Talon resin (Clontech) followed by glutathione Sepharose (GE healthcare) to obtain the correct stoichiometry ratio of the Retromer complex. Removal of the GST tag from the constructs was performed using an on-column cleavage approach with PreScission protease. The fusion tag free protein was further purified using SEC on a HiLoad® 16/600 Superdex 200 column as described above. Protein integrity was validated using SDS-PAGE gel and concentration was measured using Nanodrop at OD280.
# All microcalorimetry experiments were carried out at 25 °C using a PEAQ ITC (Malvern, UK) in protein buffer. […] In the macrocyclic peptide experiment, the equivalent percentage (v/v) of DMSO was added into the target protein to avoid buffer mismatch. All ITC experiments were performed with a single injection of 0.4 μL followed by a series of 12 injections of 3.2 μL each, spaced 180 s apart, and stirred at 750 rpm. To calculate the heat exchange of interactions, the observed peaks were integrated with the subtraction of heat of dilution from the background. The thermodynamic parameters including Kd, ΔH, ΔG, and −TΔS were obtained by fitting and normalizing the data to a single-site binding model using Malvern software package. The stoichiometry was adjusted initially, and if the value was near 1, N was set to exactly 1.0 for computation. To ensure the data were reproducible, each experiment was run at least twice.
# [1] = 300 μM peptide into 10 μM GST-VPS29C
-TΔS [1] [kcal/mol],ΔG [1] [kcal/mol],ΔH [1] [kcal/mol],"Kd (300 μM peptide titrated into 10 μM GST-VPS29C, protein buffer (50 mM Tris-HCl pH 7.5, 200 mM NaCl, 2 mM β-mercaptoethanol), each experiment run at least twice)",Substance
4.26 ± 2.04,-5.26 ± 0.15,-9.54 ± 2.50,–,VPS35L 16-38: natural peptide of the amino-terminal region of VPS35L containing a Pro-Leu motif (EFASCRLEAVPLEFGDYHPLKPI)
–,–,–,No binding detected,VPS35L 28-37: natural peptide of the amino-terminal region of VPS35L containing a Pro-Leu motif (EFGDYHPLKP)
